Measured values from a protein production outcome set (Wang et al. 2014).

Test: label from the status in PepcDB records

Sequence	protein production
MKFYTILSILFISFMLSACAVLQKSSPLQENKDFYILDTHTQKKISFEDMILELLKADVILLGEKHDEVKHKISQVMIFNALEGNLSSQNINFDVALEMLASTEQNHLDKAFKNKKTIKANELTNALNWDKVWKWKDYEQFVNVVFYSKSKILGANLSRSEITSIYNGAQPLKGYVSTTNEVKKQLFDIISLSHKLNPEENKELLDKLVEIQQFKDRRMADVLVHHVNKVLLLAGSYHTSKKIGIPLHIQDFKSSKKIVVVNLSYGEIDLKDSDYVLIYKGEELEHHHHHH	failed
MHCDDVMLPAALHRESCPAPEGVVTVADTTRNASGHARPRISIIIPAWNIAPWIGQTLRSILSQTVDDFECIVIDDGSTDGTAQVVASVADPRIRCIRQPNAGVSAARNRGIAEAQGAFITFLDGDDYWLPCFLETLLPPLLTRPEVDLVYCGMTMFMDDDGTVKPQPWGNVHATGNVWWDMLSDSVMLMGAWLARAEVVKGCRPFDPTLRVGEDRDFLLSMLEDIYHQRHHEAVGIDARLLRYRQRRGSGVRQVADALQCEWHMMDRHLRHEGIPPAVRRRAYSDLAFKMGVIAAFGARDIALALRWYGKAFALCPMNGNLYWLPLRKMFLSLRPRRRLHMKVLFLSARADFGGGPEHVLQLLRRLPPDVEAAVACPEDVPYWERFRNIVGDDNMFSMPHRAFTLEAVARLRRFCRKRGFDVLHAHGKGAGLYARVLSLLCGIPSVYTFHGVHLGGYGPLKRWLYGAYERAASWCTRRGIAVSRGERDAIEAHGLMPASKVSVIMNGVEMPEGTAPRPAGPPWLVVSFSRFDMQKNSLFLLDVARALQEQGRLDGFRFLLVGDGPDRARLLEQAAAQGLGDRVSCPGATPTPHEAYAGALCYFSSSRWEGMPLAVLEAMAHGLPVVATDVVGNRDAVADGVTGLLYPEGDAGAAARGLVRLADEAALWAAMAHEARAWVATRHDVQRMADRTFHELRKACGRA	failed
PATCPIVPGQEMIIEISKGRSGLGLSIVGGKDTPLNAIVIHEVYEEGAAARDGRLWAGDQILEVNGVDLRNSSHEEAITALRQTPQKVRLVVYRDEAHYRDEE	not failed
MPRAPRCRAVRSLLRSHYREVLPLATFVRRLGPQGWRLVQRGDPAAFRALVAQCLVCVPWDARPPPAAPSFRQVSCLKELVARVLQRLCERGAKNVLAFGFALLDGARGGPPEAFTTSVRSYLPNTVTDALRGSGAWGLLLRRVGDDVLVHLLARCALFVLVAPSCAYQVCGPPLYQLGAATQARPPPHASGPRRRLGCE	failed
PKKPGTGKHIVYFPGANTYYQACFRDISTACKETGATVHAFNFPGTGLSSGKVREANDLINAGISVVSSLIKQGVHPDDIILQGDCYGASIALEVKKQLEDQ	failed
MDKTKRKMIYETFMLILILLSLALLPYRNNFTFILNWIIWVIFTLDYLVRLYRADNKWHYVKTHPFQLIAIIPFYGGFRAARIVSFVHLLSITAMGRRYIVPIYSFFRSNGLNRFLMIFVLLVIIIPVPMVFIEPEINNYPDALWWAIVTATTVGYGDIVPVTPIGRILASIMMLFGIAFIGMITSTITNFFRAKKPTNSSTQRANKITQLISETPDLTKEEIAVVEQFLTLRKKELADENTKSDSE	failed
SLKLFLFEFATCGERIEDSTAVEGLAMFKSAFDGFKNYYEITGFVRPEFSCLFTLPVDSMDSMEKYLEKSDAFLIIAPEDDFLLYTLTKKAEKYCENLGSSSRAIAVTSDKWELYKKLRGEVQVPQTSLRPLDCKFIIKPRTACAGEGIGFSDEVPDGHIAQEFIEGINLSVSLAVGEDVKCLSVNEQIINNFRYAGAVVPARISDEVKREVVEEAVRAVECVEGLNGYVGVDIVYSDQPYVIEINARLTTPVVAFSRAYGASVADLLAGGEVKHVRRQMVRKSKSAEKPYVSVGDYTLEIIDLD	not failed
MSRKPRYSLALEVEPANPNEAYRHYMKKLSYETDIADLSIDIKKGYEGIIVVDVRDAEAYKECHIPTAISIPGNKINEDTTKRLSKEKVIITYCWGPACNGATKAAAKFAQLGFRVKELIGGIEYWRKENGEVEGTLGAKADLFWNMKKESKNKKSLDGSTQ	failed
MKTLQTHRVLQALIGHFTPFLESGITELMINTEQELWLYKVNNTREKRGHALFDKAFLLRFCEQLASFRGLFFDEEHPTLNCSIPFTRYRVSANHFSITTNNQITLNIRVPRLKPLSLEDFTFKASDPKSLKDLALKGHNILISGETSSGKTSLLNALLDCVNKDERVVSVEDSQELDLKAFSNCVGLLVGKQENTRFNYEDALNMAMRLNPDRLIVGEIDTRNAALFLRLGNTGHKGMLSTIHANSAQNTLEALSLNLSMRYMYSLDKDLMRAYFKSAIDVIVHVNRINNERQIAEVLWTKEL	failed
MNQLTSSFIQNLAEDNIYKLPPHSIEAEQSVLGGLMLDNQAWDKVADIIIESDFYRQDHQLIYQHISRLIEQNKPADVITVAESLENAAQLQHAGGLAYIGAIAQNTPSAANIRRYAEIVRERSIMRKL	failed
MTSAAEITAAVRQLYNTYPFPPEPLLDEPPPGYNWRWSWPAAYSFCTGRYPSQLDVAILDAGCGTGVGTEYLAHLNPQAKITALDLSEAALAIACERCRRSGATNVQFHHLSLEEVAQLGQTFQMINCVGVLHHLPEPQRGIQALADVLAPGGIVHIFVYGEYGRWEIKLMQQAIALLQGSDRHNYREGVAIGRQLFAALPENNRLKKREQERWSLENQRDECFADMYVHPQEIDYTIASLFELIRASGLEFIGFSNPQVWQLERLLGSQPELLQRAQQLDPIQQYQLIECLDPEAMTHFEFFLAKPPLPRHDWAADRELLAAIPWRHPCIDGWPGACVFNCHYEVIHLNQAEQEFLNAASGKATVAELLAQQPDFNLAEVRSLLARHLLLLGVKELEHHHHHH	failed
MGYCQDDQLVNKICDLYEKISKLETLKPCEDVDTLFKQLVSTCIPPNPNIDVTKMSENIQEMRSNLIKICGEAEGYLEHHFSSILTSFEDNPLHHLNLFPYYNNYLKLSKLEFDLLEQNLNGFVPRTVAFIGSGPLPLTSVVLASSHLKDSIFHNFDIDPSANMVAARLVSSDPDLSQRMFFHTVDIMDVTESLKGFDVVFLAALVGMDKKEKVKVVEHLEKHMSPGALLMLRSAHGPRAFLYPIVEPCDLEGFEVLSVYHPTDEVINSIVISRKLGEDANGVVHDHIDQASDLACNCSKIHVIMNKKKSIIEEFAGANEEQLT	failed
MIEFTALDDLSLLRESVSLECKLAQGRDGKGALPDDFWPTYSAMANTDGGIVILGVRERKGQFEVAGIENPDKLRTELFNHLNNRQKVSVNLLRDEDVRAWPVEGKTLLVVEIPRARRQQRPVYLRGNPLGGHTYRRLHEGDRPLPDE	failed
MFASCHCVPRGRRTMKMIHFRSSSVKSLSQEMRCTIRLLDDSEISCHIQRETKGQFLIDHICNYYSLLEKDYFGIRYVDPEKQRHWLEPNKSIFKQMKTHPPYTMCFRVKFYPHEPLKIKEELTRYLLYLQIKRDIFHGRLLCSFSDAAYLGACIVQAELGDYDPDEHPENYISEFEIFPKQSQKLERKIVEIHKNELRGQSPPVAEFNLLLKAHTLETYGVDPHPCKDSTGTTTFLGFTAAGFVVFQGNKRIHLIKWPDVCKLKFEGKTFYVIGTQKEKKAMLAFHTSTPAACKHLWKCGVENQAFYKYAKSSQIKTVSSSKIFFKGSRFRYSGKVAKEVVEASSKIQREPPEVHRANITQSRSSHSLNKQLIINMEPLQPLLPSPSEQEEELPLGEGVPLPKEENISAPLISSSPVKAAREYEDPPSEEEDKIKEEPLTISELVYNPSASLLPTPVDDDEIDMLFDCPSRLELEREDTDSFEDLEADENAFLIAEEEELKEARRALSWSYDILTGHIRVNPLVKSFSRLLVVGLGLLLFVFPLLLLLLESGIDLSFLCEIRQTPEFEQFHYEYYCPLKEWVAGKVHLILYMLGCS	failed
MNRSRDKVRCALNHQNAGSIPVDFGSTAVTGIHCRIVEALRNYYGLAPRPVKIVDAFQMLGEIDAELAEKIGVDCIGIGGPKDIFDLDTTRMHEQTTPWGQRVLVPEAMDLTPDMRGDVYVYAGGDQNYPPSAVMPKGCYFINAIERQQPIEEDRLDPEDNVEEFGLLTENDLAYYCAEADKAYQTGRAVVASFGGTALGDVAFVPGMGLKQPKGIRSVVEWYMSTAMRQDYLHQVFEKEIDIAIANYEKLWAALGDKIDVVLTCGTDFGSQESQFCSIDTFRELWLPHYRRMNDWIHQHTTWKIFKHSCGAIIPILPGLIEAGFDIINPVQINAKDMDSRRLKEEFGSQLTFWGGGVDTQKILPFGTPDEIRRHVMGQCEILGRDGGFVFNAVHNVQANVPVDNVVAMFDALKDISLEHHHHHH	failed
MGTARTLTAAGGEPAFRGNDRLLLGIILGVLTFWLFAQTTLNIAPDMRRDLGTGESLMNIAVALTALFSGIFIVVMGGLADRVGRVRMVRLGFLASIAGSLLVGLAPAGGLAVAFLLAGRALQGLSGACIMPASLALVKAYWDGAERQRAISLWSIGSWGGSGVCSLFGGLVTQHLGWRWIFFASVLVAIAGLLLLRGTPESRAEGGAADYRFDLAGVLTFMVAMVALQVVVTQGNQLGWTSPASLGLVAATIVFGWLFLRIERRARSPFIDFGLFRSPTYTGATISNFLLNGVAGTLIVSLQLVQVGGGMSAQRAGVLTLGYAVAIIAFIRVGEKLLRRFGARRPMLWGCAITGASILLLAPSNVMLARYEVMAVIGYTLFGVGLAFYATPSTDAALSNLPASQAGAGSGLYKMASSLGAAFGVAISAAIFTALRAAPQSVSWLEGVITFQGRQDNLAVREAAIIALGFNELMVVVAIVSIVLTIPEGERRQGA	failed
MSHGIKLLVSGDHACFTRPEMKAERVSYDVMTPSAARGILEAIHWKPAITWVIDAIHVLKPIRFQTLRRNEVGGKVPAGKVKSAMTKGTLDGLALLADEDRQQRATTLLVDVAYVIEAHFTLTDKAGPEDNPGKHLDIFTRRARKGQCFHQPCLGTREFPARFELIDGDRPIPAAVNRSEDLGFMLWDIDHAGDRSSMFFRARMDRGVVRVPAPSSAEIRR	failed
MRRSSSKKKSGQSTESVTTDLFRSASSKASNKEMDRIDHLFNQYANKSSSLIDPEGIEELCSNLEVSHTDIRILMLAWKMKAEKQGYFTHISFPDMGDYNPELAWPLILDNFVEWIQEKQA	failed
MIITQGPQFQGKASKRLHVMAKPIGAVCNIDCSYCYYLSKEDLLEYKKGCSPQMDDETLETYIRQYIEGQNTPEIIFSWQGGEPTLLGLDYFKKIVEFQKKYQPEGILISNDLQTNGTLLTDKWCEFLAENNFLVGLSIDGPEMLHNAYRTNKAGRGTFKQVMNAVELLHKHNVKFATLTCVNNLTSRNPLEVYRFLRDV	failed
MTVSQDILLTDHFKQWIEIFKKGKVSDGTYRKYLYTLSVLKKHFSTATIKTMNRVKYQEMLNEFAEGHSDSSVKQINVHVRASLENLLDDFIIKNDFTKGLEHHHHHH	failed
MGDQRFDVLITGGTLVDVVTGELRPADIGIVGALIASVHEPASRRDAAQVIDAGGAYVSPGLIDTHMHIESSMITPAAYAAAVVARGVTTIVWDPHEFGNVHGVDGVRWAAKAIENLPLRAILLAPSCVPSAPGLERGGADFDAAILADLLSWPEIGGIAEIMNMRGVIERDPRMSGIVQAGLAAEKLVCGHARGLKNADLNAFMAAGVSSDHELVSGEDLMAKLRAGLTIELRGSHDHLLPEFVAALNTLGHLPQTVTLCTDDVFPDDLLQGGGLDDVVRRLVRYGLKPEWALRAATLNAAQRLGRSDLGLIAAGRRADIVVFEDLNGFSARHVLASGRAVAEGGRMLVDIPTCDTTVLKGSMKLPLRMANDFLVKSQGAKVRLATIDRPRFTQWGETEADVKDGFVVPPEGATMISVTHRHGMAEPTTKTGFLTGWGRWNGAFATTVSHDSHNLTVFGGNAGDMALAANAVIGTGGGMAVASEGKVTAILPLPLSGLVSDAPLEEVARAFEDLREAVGKVVEWQPPYLVFKACFGATLACNIGPHQTDMGIADVLTGKVMESPVIEVLEHHHHHH	failed
MPQHDKSRLVRIDTGPMINPVAGKPSRPIAGDASFRTVTAFEGGQGKVESGVWESTSGSFQSNTTGYIEYCHIIEGEARLVDPDGTVHAVKAGDAFIMPEGYTGRWEVDRHVKKIYFVTHLA	not failed
